Consider one protein from paper PMC10136361, “Inhibition Analysis and High-Resolution Crystal Structure of Mus musculus Glutathione Transferase P1-1” (Biomolecules, 2023).

What is called Km is the concentration of substrate that gives half-maximal velocity.

Substrate in this data set: N[C@@H](CCC(=O)N[C@@H](CS)C(=O)NCC(=O)O)C(=O)O
As to the kind of experiment: purified protein. The conditions noted are these: G-site.

B1: MmGSTP1-1 (Mus musculus) (protein)
chain: PPYTIVYFPVRGRCEAMRMLLADQGQSWKEEVVTIDTWMQGLLKPTCLYGQLPKFEDGDLTLYQSNAILRHLGRSLGLYGKNQREAAQMDMVNDGVEDLRGKYVTLIYTNYENGKNDYVKALPGHLKPFETLLSQNQGGKAFIVGDQISFADYNLLDLLLIHQVLAPGCLDNFPLLSAYVARLSARPKIKAFLSSPEHVNRPINGNGKQ
For the protein B1, the Km is 220 ± 10 µM.
